From patent US20070190574A1, “Diagnostic method for identifying carriers of the Marburg I variant of factor VII-activating protease (FSAP) on the basis of differential modulation of FSAP activity” (DADE BEHRING MARBURG GmbH, priority 2005, published 2007)
“And” between values parts separate entries of the source, which are not always exact repeats. Equal entries are not always repeated.

Experiments:
Type in all cases: biochemical
FSAP wild type [1] = molecular target: T1, FSAP wild type (Homo sapiens, UniProt Q14520); assay: Prourokinase-activating activity of FSAP with and without aprotinin (S-2444), wild-type plasma samples
T1 construct: found for a plasma sample of a non-carrier (wild type); from tissue
T1 sequence (Q14520 24-560): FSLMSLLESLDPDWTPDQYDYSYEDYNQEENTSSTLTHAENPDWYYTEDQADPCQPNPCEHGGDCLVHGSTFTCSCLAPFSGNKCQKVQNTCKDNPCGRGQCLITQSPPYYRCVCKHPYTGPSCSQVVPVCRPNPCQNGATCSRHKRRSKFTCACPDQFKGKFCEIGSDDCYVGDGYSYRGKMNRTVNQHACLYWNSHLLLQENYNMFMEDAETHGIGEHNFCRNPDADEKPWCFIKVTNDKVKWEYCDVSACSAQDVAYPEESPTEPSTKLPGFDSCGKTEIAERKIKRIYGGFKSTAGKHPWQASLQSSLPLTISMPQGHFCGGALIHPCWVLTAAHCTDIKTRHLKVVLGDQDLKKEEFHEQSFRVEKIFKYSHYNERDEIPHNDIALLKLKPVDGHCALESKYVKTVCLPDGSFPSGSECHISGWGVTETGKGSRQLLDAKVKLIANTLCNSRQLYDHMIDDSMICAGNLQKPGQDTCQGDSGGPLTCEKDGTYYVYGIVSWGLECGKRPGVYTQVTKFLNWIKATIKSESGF
Description: (§1) An anti-FSAP antibody produced via the hybridoma cell line DSM ACC2453 was used as solid phase-associated binding partner having affinity for FSAP. Polystyrene microtiter plates (MTPs) were used as solid phase for carrying out the heterogeneous detection method. Anti-FSAP antibodies in 50 mM NaHCO3, pH 8.2, were associated onto the polystyrene solid phase with a coating volume of 120 μl per well of the MTP and a coating concentration of 20 μg of antibody per ml at room temperature overnight. Unbound antibodies were removed by washing three times with 50 mM sodium phosphate-buffered isotonic NaCl solution, 0.02% Tween® 20, pH 6.5.
(§2) In each case 100 μl of a plasma sample to be determined were pipetted in a dilution of 1:80 in sample buffer (20 mM sodium citrate, pH 6.0, with 150 mM NaCl, 100 mM L-arginine monohydrochloride, 1% bovine serum albumin, 0.1% Tweene® 80, 100 I.U. of heparin/ml) into the wells. After incubation at +37° C. for one hour, unbound constituents were removed by washing three times with 50 mM sodium phosphate-buffered isotonic NaCl solution, 0.02% Tweene® 20, pH 6.5.
(§3) The change in absorption (OD) of the reaction mixtures was followed at a wavelength of 405 nm. A differentiation between carriers and non-carriers of the FSAP MR I variant is possible through the formation of a quotient between vmax of the reaction kinetics of a sample without added aprotinin (vmax0) and with added aprotinin (vmax aprotinin). The following applies thereto: • FSAP wild type vmax0/FSAP wild type vmax aprotinin>FSAP MR I vmax0/FSAP MR I vmax aprotinin.
(§4) The maximum slope of the time-conversion plots was determined by linear regression in a sufficiently linear region of the time-conversion plot and afforded the maximum reaction rate vmax of a reaction in mOD/min.

FSAP MR I variant [2] = molecular target: T2, FSAP MR I variant (Homo sapiens, UniProt Q14520, G534E); assay: Prourokinase-activating activity of FSAP with and without aprotinin (S-2444), MR I carrier plasma samples
T2 construct: found for a plasma sample of a heterozygous carrier of the MR I polymorphism; from tissue
T2 sequence (Q14520 314-560 G534E limits assumed): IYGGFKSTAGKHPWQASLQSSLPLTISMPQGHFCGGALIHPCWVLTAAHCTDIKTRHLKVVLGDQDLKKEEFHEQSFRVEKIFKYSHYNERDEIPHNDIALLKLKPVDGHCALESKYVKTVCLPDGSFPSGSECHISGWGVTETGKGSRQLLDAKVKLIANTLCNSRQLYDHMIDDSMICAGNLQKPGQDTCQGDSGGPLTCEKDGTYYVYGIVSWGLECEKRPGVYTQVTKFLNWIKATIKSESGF
T2 sequence (Q14520 24-313 partner limits assumed): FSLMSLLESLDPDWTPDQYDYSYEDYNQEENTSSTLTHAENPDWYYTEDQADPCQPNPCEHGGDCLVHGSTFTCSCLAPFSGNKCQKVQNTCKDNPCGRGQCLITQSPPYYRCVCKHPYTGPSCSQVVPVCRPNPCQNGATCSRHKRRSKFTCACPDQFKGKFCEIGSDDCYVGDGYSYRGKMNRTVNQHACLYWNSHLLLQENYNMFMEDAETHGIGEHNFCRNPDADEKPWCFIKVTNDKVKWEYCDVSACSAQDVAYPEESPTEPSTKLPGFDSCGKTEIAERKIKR
Description: as §1, §2, §3, §4

FSAP wild type [3] = molecular target: T1, FSAP wild type; assay: Amidolytic activity of FSAP for S-2288 with and without aprotinin, wild-type plasma samples
Description: (§5) The microtiter plates used were the same as described in example 1. In each case 100 μl of a plasma sample to be determined were pipetted in a dilution of 1:50 in sample buffer (see example 1) into the wells. After incubation at +37° C. for one hour, unbound constituents were removed by washing three times with 50 mM sodium phosphate-buffered isotonic NaCl solution, 0.02% Tweene® 20, pH 6.5.
(§6) In order to reduce evaporation effects during the relatively long incubation time in the MTP, a layer of mineral oil was put on top.
(§7) The change in absorption (OD) of the reaction mixtures was followed at a wavelength of 405 nm, and the maximum reaction rate vmax was determined (see example 1). Differentiation between carriers and non-carriers of the FSAP MR I variant is possible through the formation of a ratio (quotient) between vmax of the reaction kinetics of a sample without added aprotinin (vmax0) and with added aprotinin (vmax aprotinin). The following applies thereto: • FSAP wild type vmax0/FSAP wild type vmax aprotinin>FSAP MR I vmax0/FSAP MR I vmax aprotinin.

FSAP MR I variant [4] = molecular target: T2, FSAP MR I variant; assay: Amidolytic activity of FSAP for S-2288 with and without aprotinin, MR I carrier plasma samples
Description: as §5, §6, §7

FSAP wild type [5] = molecular target: T1, FSAP wild type; assay: Change in amidolytic activity of FSAP (S-2288) on addition of activity modulator during the reaction, wild-type sample
Description: (§8) The microtiter plates used were the same as described in example 1. In each case 100 μl of a plasma sample to be determined were pipetted in a dilution of 1:15 in sample buffer (see example 1) into the wells. After incubation at +37° C. for one hour, unbound constituents were removed by washing three times as in example 1.
(§9) To determine the amidolytic activity of FSAP, at time t0 in each case 80 μl of the chromogenic substrate S-2288 (1.5 mmol/L; Chromogenix Instrumentation Laboratory S.p.A., Milano, Italy) in a 50:50 mixture of test buffer I and test buffer II (see example 1for test buffer I and 11) were put into the MTP wells and incubated at +37° C. in a photometer. After about 60 minutes, aprotinin was added in a final concentration of 2.95 KIU/ml or the respective monoclonal antibody (MAb) was added in a final concentration of about 60 μg/ml per reaction mixture. The change in absorption of the reaction mixtures was followed at a wavelength of 405 nm, and the maximum reaction rate vmax was determined (see example 1). In order to reduce evaporation effects during the relatively long incubation time, a layer of mineral oil was put on top.
Differentiation between carriers and non-carriers of the FSAP MR I variant is possible through forming a ratio, for example the quotient of the maximum reaction rate before addition of the differential activity modulator (vmax) and the maximum reaction rate after addition of the differential activity modulator (vmax aprotinin).
Three independent measurements were carried out on the sample of the non-carrier of the FSAP MR I variant (wild-type sample; WT). Six independent measurements were carried out on the sample of the heterozygous carrier of the FSAP MR I variant (MR I). The averages (Av.) of vmax/vmax activity modulator (vmax/vmaxA) and the standard deviations relating to the population (SD) were calculated. The negative control, i.e. addition of a corresponding volume of test buffer I and test buffer II in the ratio 50:50 without activity modulator afforded an Av. vmax/vmaxA of 0.81 +/− 0.12. […]

FSAP MR I variant [6] = molecular target: T2, FSAP MR I variant; assay: Change in amidolytic activity of FSAP (S-2288) on addition of activity modulator during the reaction, MR I sample; conditions: vmax before/after modulator added at about 60 min; aprotinin 2.95 KIU/ml, MAb about 60 μg/ml; six measurements; negative control 0.81
Description: as §8
as §9, with “In order to reduce evaporation effects during the relatively long incubation time, a layer of mineral oil was put on top.” left out
Three independent measurements were carried out on the sample of the non-carrier of the FSAP MR I variant (wild-type sample; WT). […] The averages (Av.) of vmax/vmax activity modulator (vmax/vmaxA) and the standard deviations relating to the population (SD) were calculated. […]

[7] = average over WT samples, 0.055 KIU/ml aprotinin
[8] = without vs 0.055 KIU/ml aprotinin, WT samples, one value per sample
[9] = average over MR I samples, 0.055 KIU/ml aprotinin
[10] = without vs 0.055 KIU/ml aprotinin, MR I samples, one value per sample

For aprotinin, the vmax aprotinin (FSAP wild type [1]; 0.055 KIU/ml aprotinin, WT plasma samples 1:80, S-2444, one value per sample) was 13.82 mOD/min and 12.09 mOD/min and 8.81 mOD/min and 11.84 mOD/min, the “inhibition of prourokinase-activating activity of FSAP, non-carrier sample versus heterozygous carrier sample” value (FSAP wild type [1]; FIGS. 1 and 2, 0.036 and 0.055 KIU/ml final aprotinin concentration) was “substantially more strongly” and the “Av. vmax0/vmax aprotinin” value (FSAP wild type [1]; [7]) was 2.01. For the same substance, the “Av. vmax0 − vmax aprotinin” value (FSAP wild type [1]; [7]) was 11.37 mOD/min, the vmax0/vmax aprotinin (FSAP wild type [1]; [8]) was 1.90 and 1.78 and 2.41 and 1.95 and the “vmax0 − vmax aprotinin” value (FSAP wild type [1]; [8]) was 12.42 mOD/min and 9.38 mOD/min and 12.44 mOD/min and 11.23 mOD/min. The vmax aprotinin (FSAP MR I variant [2]; 0.055 KIU/ml aprotinin, MR I plasma samples 1:80, S-2444, one value per sample) was 2.00 mOD/min and 1.84 mOD/min and 2.45 mOD/min, the “Av. vmax0/vmax aprotinin” value (FSAP MR I variant [2]; [9]) was 1.43 and the “Av. vmax0 − vmax aprotinin” value (FSAP MR I variant [2]; [9]) was 0.90 mOD/min. The vmax0/vmax aprotinin (FSAP MR I variant [2]; [10]) was 1.52 and 1.35 and 1.41, the “vmax0 − vmax aprotinin” value (FSAP MR I variant [2]; [10]) was 1.04 mOD/min and 0.64 mOD/min and 1.01 mOD/min and the vmax aprotinin (FSAP wild type [3]; 0.055 KIU/ml aprotinin, WT plasma samples 1:50, S-2288, one value per sample) was 6.90 mOD/min and 9.57 mOD/min and 7.52 mOD/min. The “inhibition of amidolytic activity of FSAP, non-carrier sample versus heterozygous carrier sample” value (FSAP wild type [3]; FIGS. 3 and 4, 0.036 and 0.055 KIU/ml final aprotinin concentration) was “considerably more strongly”, the “Av. vmax0/vmax aprotinin” value (FSAP wild type [3]; [7]) was 1.48 and the “Av. vmax0 − vmax aprotinin” value (FSAP wild type [3]; [7]) was 3.81 mOD/min. The vmax0/vmax aprotinin (FSAP wild type [3]; [8]) was 1.45 and 1.47 and 1.51, the “vmax0 − vmax aprotinin” value (FSAP wild type [3]; [8]) was 3.09 mOD/min and 4.49 mOD/min and 3.86 mOD/min and the vmax aprotinin (FSAP MR I variant [4]; 0.055 KIU/ml aprotinin, MR I plasma samples 1:50, S-2288, one value per sample) was 1.22 mOD/min and 0.94 mOD/min and 1.87 mOD/min. The “Av. vmax0/vmax aprotinin” value (FSAP MR I variant [4]; [9]) was 1.04, the “Av. vmax0 − vmax aprotinin” value (FSAP MR I variant [4]; [9]) was 0.07 mOD/min and the vmax0/vmax aprotinin (FSAP MR I variant [4]; [10]) was 1.02 and 1.03 and 1.08. The “inhibition of FSAP amidolytic activity after addition of aprotinin in a single reaction mixture, non-carrier versus heterozygous carrier” value (FSAP wild type [5]; FIG. 5, aprotinin added at a reaction time of about one hour) was “inhibited more strongly in the sample of the non-carrier”, the “WT/MRI quotient of Av. vmax/vmax A” value (FSAP wild type [5]; WT sample versus heterozygous MR I sample, aprotinin 2.95 KIU/ml, MAb about 60 μg/ml) was 1.35 and the “WT Av. vmax/vmax A” value (FSAP wild type [5]; vmax before/after modulator added at about 60 min, aprotinin 2.95 KIU/ml, MAb about 60 μg/ml, three measurements, negative control 0.81) was 16.72. For the same substance, the “MRI Av. vmax/vmax A” value (FSAP MR I variant [6]) was 12.36.
